Reference: patent US20150368301A1

Key:
[1] = molecular target: Phosphorylated Nox1 peptide (pNox1, KLKT*QKIYF); test: ITC, phosphorylated versus unphosphorylated Nox1 peptide
[2] = molecular target: Phosphorylated Nox1 peptide (pNox1, KLKT*QKIYF); test: ITC, pNox1 peptide injected into NoxA1 AD peptide, single site model, n=3, 25° C.
[3] = molecular target: Phosphorylated Nox1 peptide (pNox1, KLKT*QKIYF); test: ITC, pNox1 peptide injected into NoxA1 AD peptide, single site model, n=3, 25° C.; phosphorylated Nox1 peptide (pNox1, T429)

fold increase of association against the unphosphorylated Nox1 peptide [1]: > 100 fold | stoichiometry [2]: 0.86 | Kd [3]: 1.5 µM
Substance: NoxA1 activation domain (AD) peptide (…)
